The labels stand for the following.
B1: KCNA3 (parent)
chain: GERVVINISGLRFETQLKTLCQFP
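Also: lentivirally expressed fusions sorted by FACS into six bins by GFP to DsRed ratio, PSI derived from sequencing read proportions per bin multiplied by bin number.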

The variants in this data set derive from B1. Nature of the data set: protein stability index of a GFP-peptide fusion (GPS, HEK-293T) (PSI 1-6); higher = more stable. To be noted: c terminus: a fixed tail appended.
On to GERVVINISGLRFETQLKTLVQFP [C21V], for which the protein stability index came out at 1.81.

Turning to GERVVINISGLRFETQLKTLTQFP [C21T], the protein stability index was 2.68.

In the case of GERVVINISGLRFETQLKTLGQFP [C21G], the protein stability index was 1.

As for GERVVINISGLRFETQLKTLQQFP [C21Q], the protein stability index worked out at 2.57.

With GERVVINISGLRFETQLKTLDQFP [C21D], the protein stability index was found to be 2.14.

Consider GERVVINISGLRFETQLKTLNQFP [C21N], for which the protein stability index came to 1.37.

For GERVVINISGLRFETQLKTLPQFP [C21P], the protein stability index came out at 3.67.

As to GERVVINISGLRFETQLKTLFQFP [C21F], the protein stability index came to 2.95.

As for GERVVINISGLRFETQLKTLRQFP [C21R], the protein stability index amounted to 3.08.

With GERVVINISGLRFETQLKTLMQFP [C21M], the protein stability index amounted to 1.12.

GERVVINISGLRFETQLKTLIQFP [C21I]: the protein stability index is 3.26.

As to GERVVINISGLRFETQLKTLHQFP [C21H], the protein stability index is 1.91.

GERVVINISGLRFETQLKTLCQFE [P24E]: the protein stability index is 4.68.

For GERVVINISGLRFETQLKTLCQFK [P24K], the protein stability index worked out at 1.44.

Take GERVVINISGLRFETQLKTLCQFG [P24G]: the protein stability index was determined as 2.75.

Regarding GERVVINISGLRFETQLKTLCQFN [P24N], the protein stability index came out at 3.07.

On to GERVVINISGLRFETQLKTLCQFA [P24A], for which the protein stability index came to 2.47.

Turning to GERVVINISGLRFETQLKTLCQFW [P24W], the protein stability index worked out at 1.69.

As to GERVVINISGLRFETQLKTLCQFI [P24I], the protein stability index was 2.

Take GERVVINISGLRFETQLKTLCQFV [P24V]: the protein stability index amounted to 1.04.

Consider GERVVINISGLRFETQLKTLCQFC [P24C], for which the protein stability index came out at 2.4.

As for GERVVINISGLRFETQLKTLCQFL [P24L], the protein stability index came to 2.2.

On to GERVVINISGLRFETQLKTLCQFF [P24F], for which the protein stability index worked out at 3.52.

As to GERVVINISGLRFETQLKTLCQFY [P24Y], the protein stability index was found to be 2.26.

In the case of GERVVINISGLRFETQLKTLCQCP [F23C], the protein stability index came to 3.65.

Regarding GERVVINISGLRFETQLKTLCQTP [F23T], the protein stability index was found to be 1.36.

On to GERVVINISGLRFETQLKTLCQLP [F23L], for which the protein stability index came to 1.95.

For the variant GERVVINISGLRFETQLKTLCQQP [F23Q], the protein stability index was 1.94.

For the variant GERVVINISGLRFETQLKTLCQKP [F23K], the protein stability index was determined as 1.59.

On to GERVVINISGLRFETQLKTLCQNP [F23N], for which the protein stability index was 1.52.

In the case of GERVVINISGLRFETQLKTLCQHP [F23H], the protein stability index is 3.14.

On to GERVVINISGLRFETQLKTLCQDP [F23D], for which the protein stability index worked out at 2.25.

With GERVVINISGLRFETQLKTLCQSP [F23S], the protein stability index was 2.88.

As to GERVVINISGLRFETQLKTLCQEP [F23E], the protein stability index is 2.2.

Consider GERVVINISGLRFETQLKTLCQIP [F23I], for which the protein stability index worked out at 2.48.

For the variant GERVVINISGLRFETQLKTLCQAP [F23A], the protein stability index stood at 2.41.

Consider GERVVINISGLRFETQLKTLCQRP [F23R], for which the protein stability index was 1.92.

Consider GERVVINISGLRFETQLKTGCQFP [L20G], for which the protein stability index amounted to 1.95.

Consider GERVVINISGLRFETQLKTCCQFP [L20C], for which the protein stability index worked out at 1.39.

Take GERVVINISGLRFETQLKTDCQFP [L20D]: the protein stability index worked out at 1.22.

Take GERVVINISGLRFETQLKTKCQFP [L20K]: the protein stability index stood at 3.74.

Take GERVVINISGLRFETQLKTRCQFP [L20R]: the protein stability index was found to be 2.84.

As to GERVVINISGLRFETQLKTICQFP [L20I], the protein stability index stood at 1.56.

For the variant GERVVINISGLRFETQLKTNCQFP [L20N], the protein stability index amounted to 2.33.

Take GERVVINISGLRFETQLKTQCQFP [L20Q]: the protein stability index came to 1.2.

For GERVVINISGLRFETQLKTACQFP [L20A], the protein stability index worked out at 2.24.

For the variant GERVVINISGLRFETQLKTMCQFP [L20M], the protein stability index worked out at 2.22.

As to GERVVINISGLRFETQLKTSCQFP [L20S], the protein stability index came out at 2.34.

In the case of GERVVINISGLRFETQLKTLCTFP [Q22T], the protein stability index turned out to be 2.59.

For the variant GERVVINISGLRFETQLKTLCMFP [Q22M], the protein stability index was found to be 3.99.

As to GERVVINISGLRFETQLKTLCNFP [Q22N], the protein stability index was found to be 2.1.

Turning to GERVVINISGLRFETQLKTLCDFP [Q22D], the protein stability index was 3.65.

Consider GERVVINISGLRFETQLKTLCCFP [Q22C], for which the protein stability index is 4.8.

Regarding GERVVINISGLRFETQLKTLCHFP [Q22H], the protein stability index was found to be 2.26.

With GERVVINISGLRFETQLKTLCEFP [Q22E], the protein stability index is 2.39.

Regarding GERVVINISGLRFETQLKTLCLFP [Q22L], the protein stability index amounted to 1.84.

Turning to GERVVINISGLRFETQLKTLCGFP [Q22G], the protein stability index was determined as 2.94.

Consider GERVVINISGLRFETQLKTLCAFP [Q22A], for which the protein stability index is 1.9.

Regarding GERVVINISGLRFETQLITLCQFP [K18I], the protein stability index worked out at 3.07.

For the variant GERVVINISGLRFETQLDTLCQFP [K18D], the protein stability index was determined as 3.02.

Regarding GERVVINISGLRFETQLETLCQFP [K18E], the protein stability index is 3.06.

Consider GERVVINISGLRFETQLMTLCQFP [K18M], for which the protein stability index stood at 3.17.

For the variant GERVVINISGLRFETQLCTLCQFP [K18C], the protein stability index is 1.92.

In the case of GERVVINISGLRFETQLSTLCQFP [K18S], the protein stability index came to 1.78.

In the case of GERVVINISGLRFETQLATLCQFP [K18A], the protein stability index was 3.07.

For GERVVINISGLRFETQLRTLCQFP [K18R], the protein stability index was 2.29.

With GERVVINISGLRFETQLQTLCQFP [K18Q], the protein stability index stood at 1.87.

As to GERVVINISGLRFETNLKTLCQFP [Q16N], the protein stability index came to 1.04.

Turning to GERVVINISGLRFETSLKTLCQFP [Q16S], the protein stability index came to 2.69.

For GERVVINISGLRFETHLKTLCQFP [Q16H], the protein stability index is 2.53.

For GERVVINISGLRFETTLKTLCQFP [Q16T], the protein stability index turned out to be 1.39.

Take GERVVINISGLRFETMLKTLCQFP [Q16M]: the protein stability index was found to be 4.05.

GERVVINISGLRFETYLKTLCQFP [Q16Y]: the protein stability index came to 2.02.

Regarding GERVVINISGLRFETPLKTLCQFP [Q16P], the protein stability index was 2.

GERVVINISGLRFETQLKMLCQFP [T19M]: the protein stability index stood at 3.15.

As for GERVVINISGLRFETQLKELCQFP [T19E], the protein stability index was 2.

Consider GERVVINISGLRFETQLKRLCQFP [T19R], for which the protein stability index was determined as 1.32.

On to GERVVINISGLRFETQLKCLCQFP [T19C], for which the protein stability index came to 3.24.

Take GERVVINISGLRFETQLKFLCQFP [T19F]: the protein stability index came to 1.76.

Regarding GERVVINISGLRFETQLKKLCQFP [T19K], the protein stability index is 1.45.

For GERVVINISGLRFETQLKQLCQFP [T19Q], the protein stability index is 1.28.

GERVVINISGLRFETQLKALCQFP [T19A]: the protein stability index was 1.87.

For the variant GERVVINISGLRFETQLKHLCQFP [T19H], the protein stability index is 1.78.

Take GERVVINISGLRFETQLKNLCQFP [T19N]: the protein stability index worked out at 1.34.

Take GERVVINISGLRFETQLKPLCQFP [T19P]: the protein stability index was determined as 1.49.

With GERVVINISGLRFETQEKTLCQFP [L17E], the protein stability index stood at 1.87.

GERVVINISGLRFETQHKTLCQFP [L17H]: the protein stability index came to 3.03.

With GERVVINISGLRFETQDKTLCQFP [L17D], the protein stability index is 2.06.

For the variant GERVVINISGLRFETQNKTLCQFP [L17N], the protein stability index worked out at 2.04.

For the variant GERVVINISGLRFETQVKTLCQFP [L17V], the protein stability index was 2.92.

As to GERVVINISGLRFETQAKTLCQFP [L17A], the protein stability index came to 2.88.

As for GERVVINISGLRFETQPKTLCQFP [L17P], the protein stability index turned out to be 2.58.

On to GERVVINISGLRFETQRKTLCQFP [L17R], for which the protein stability index was determined as 1.87.

In the case of GERVVINISGLRFETQKKTLCQFP [L17K], the protein stability index came to 1.42.

The record behind these values is the supplement of paper PMC10567573.
